Measured values: PMC3074162

T1: ParB 65-139 (RHH domain) (Leifsonia xyli subsp. cynodontis …, UniProt Q6EEF9 65-139)
T1 sequence: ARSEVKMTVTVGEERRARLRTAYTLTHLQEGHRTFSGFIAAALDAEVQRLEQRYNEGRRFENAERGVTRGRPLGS

B1: R3-18-11T (dsDNA)
DNA 1: GGAATAGGTGTAAAAGCC
DNA 2: GGCTTTTACACCTATTCC
B2: R3-18-7T (dsDNA)
DNA 1: GGAATATGTGGAAAAGCC
DNA 2: GGCTTTTCCACATATTCC
B3: R3-18-9A (dsDNA)
DNA 1: GGAATAGGAGGAAAAGCC
DNA 2: GGCTTTTCCTCCTATTCC
B4: R3-18-14T (dsDNA)
DNA 1: GGAATAGGTGGAATAGCC
DNA 2: GGCTATTCCACCTATTCC
B5: R3-18-12G (dsDNA)
DNA 1: GGAATAGGTGGGAAAGCC
DNA 2: GGCTTTCCCACCTATTCC
B6: R3-18-17G (dsDNA)
DNA 1: GGAATAGGTGGAAAAGGC
DNA 2: GCCTTTTCCACCTATTCC
B7: R3-18-6T (dsDNA)
DNA 1: GGAATTGGTGGAAAAGCC
DNA 2: GGCTTTTCCACCAATTCC
B8: R3-18-13C (dsDNA)
DNA 1: GGAATAGGTGGACAAGCC
DNA 2: GGCTTGTCCACCTATTCC
B9: R3-18-4T (dsDNA)
DNA 1: GGATTAGGTGGAAAAGCC
DNA 2: GGCTTTTCCACCTAATCC
B10: R3-18-6G (dsDNA)
DNA 1: GGAATGGGTGGAAAAGCC
DNA 2: GGCTTTTCCACCCATTCC
B11: R3-18-5G (dsDNA)
DNA 1: GGAAGAGGTGGAAAAGCC
DNA 2: GGCTTTTCCACCTCTTCC
B12: R2-18 (dsDNA)
DNA 1: AGTAAAGTAGGAATAGGT
DNA 2: ACCTATTCCTACTTTACT
B13: R3-18-1T (dsDNA)
DNA 1: TGAATAGGTGGAAAAGCC
DNA 2: GGCTTTTCCACCTATTCA
B14: R3-18-3C (dsDNA)
DNA 1: GGCATAGGTGGAAAAGCC
DNA 2: GGCTTTTCCACCTATGCC
B15: R3-18-1A (dsDNA)
DNA 1: AGAATAGGTGGAAAAGCC
DNA 2: GGCTTTTCCACCTATTCT
B16: R3-18-16C (dsDNA)
DNA 1: GGAATAGGTGGAAAACCC
DNA 2: GGGTTTTCCACCTATTCC
B17: R3-18-14C (dsDNA)
DNA 1: GGAATAGGTGGAACAGCC
DNA 2: GGCTGTTCCACCTATTCC
B18: R8-18 (dsDNA)
DNA 1: GGAAAAGCTGGAATTGTT
DNA 2: AACAATTCCAGCTTTTCC
B19: R3-18-9G (dsDNA)
DNA 1: GGAATAGGGGGAAAAGCC
DNA 2: GGCTTTTCCCCCTATTCC
B20: R3-18-11A (dsDNA)
DNA 1: GGAATAGGTGAAAAAGCC
DNA 2: GGCTTTTTCACCTATTCC
B21: R3-18-7C (dsDNA)
DNA 1: GGAATACGTGGAAAAGCC
DNA 2: GGCTTTTCCACGTATTCC
B22: R3-18-4C (dsDNA)
DNA 1: GGACTAGGTGGAAAAGCC
DNA 2: GGCTTTTCCACCTAGTCC
B23: R3-18-12T (dsDNA)
DNA 1: GGAATAGGTGGTAAAGCC
DNA 2: GGCTTTACCACCTATTCC
B24: R3-18-6C (dsDNA)
DNA 1: GGAATCGGTGGAAAAGCC
DNA 2: GGCTTTTCCACCGATTCC
B25: R3-18-5A (dsDNA)
DNA 1: GGAAAAGGTGGAAAAGCC
DNA 2: GGCTTTTCCACCTTTTCC
B26: R3-18-16T (dsDNA)
DNA 1: GGAATAGGTGGAAAATCC
DNA 2: GGATTTTCCACCTATTCC
B27: R3-18-8C (dsDNA)
DNA 1: GGAATAGCTGGAAAAGCC
DNA 2: GGCTTTTCCAGCTATTCC
B28: R3-18-2T (dsDNA)
DNA 1: GTAATAGGTGGAAAAGCC
DNA 2: GGCTTTTCCACCTATTAC
B29: R1-18 (dsDNA)
DNA 1: TGGCTATCCAGTAAAGTA
DNA 2: TACTTTACTGGATAGCCA
B30: R4-20 (dsDNA)
DNA 1: TGGAAAAGCCAGAAACAGTG
DNA 2: CACTGTTTCTGGCTTTTCCA
B31: R4-14 (dsDNA)
DNA 1: AAAAGCCAGAAACA
DNA 2: TGTTTCTGGCTTTT
B32: R3-18-5C (dsDNA)
DNA 1: GGAACAGGTGGAAAAGCC
DNA 2: GGCTTTTCCACCTGTTCC
B33: R3-18-15G (dsDNA)
DNA 1: GGAATAGGTGGAAAGGCC
DNA 2: GGCCTTTCCACCTATTCC
B34: R3-18-18G (dsDNA)
DNA 1: GGAATAGGTGGAAAAGCG
DNA 2: CGCTTTTCCACCTATTCC
B35: R4-16 (dsDNA)
DNA 1: GAAAAGCCAGAAACAG
DNA 2: CTGTTTCTGGCTTTTC
B36: R3-18-4G (dsDNA)
DNA 1: GGAGTAGGTGGAAAAGCC
DNA 2: GGCTTTTCCACCTACTCC
B37: R3-18-3T (dsDNA)
DNA 1: GGTATAGGTGGAAAAGCC
DNA 2: GGCTTTTCCACCTATACC
B38: R3-18-9C (dsDNA)
DNA 1: GGAATAGGCGGAAAAGCC
DNA 2: GGCTTTTCCGCCTATTCC
B39: R3-18-18A (dsDNA)
DNA 1: GGAATAGGTGGAAAAGCA
DNA 2: TGCTTTTCCACCTATTCC
B40: R3-18-13T (dsDNA)
DNA 1: GGAATAGGTGGATAAGCC
DNA 2: GGCTTATCCACCTATTCC
B41: R3-18-12C (dsDNA)
DNA 1: GGAATAGGTGGCAAAGCC
DNA 2: GGCTTTGCCACCTATTCC
B42: R3-18-17A (dsDNA)
DNA 1: GGAATAGGTGGAAAAGAC
DNA 2: GTCTTTTCCACCTATTCC
B43: R3-18-18T (dsDNA)
DNA 1: GGAATAGGTGGAAAAGCT
DNA 2: AGCTTTTCCACCTATTCC
B44: R3-18-15T (dsDNA)
DNA 1: GGAATAGGTGGAAATGCC
DNA 2: GGCATTTCCACCTATTCC
B45: R3-18-2A (dsDNA)
DNA 1: GAAATAGGTGGAAAAGCC
DNA 2: GGCTTTTCCACCTATTTC
B46: R3-18-10T (dsDNA)
DNA 1: GGAATAGGTTGAAAAGCC
DNA 2: GGCTTTTCAACCTATTCC
B47: R3-18-11C (dsDNA)
DNA 1: GGAATAGGTGCAAAAGCC
DNA 2: GGCTTTTGCACCTATTCC
B48: R3-18-7A (dsDNA)
DNA 1: GGAATAAGTGGAAAAGCC
DNA 2: GGCTTTTCCACTTATTCC
B49: R3-18-8A (dsDNA)
DNA 1: GGAATAGATGGAAAAGCC
DNA 2: GGCTTTTCCATCTATTCC
B50: R3-18-13G (dsDNA)
DNA 1: GGAATAGGTGGAGAAGCC
DNA 2: GGCTTCTCCACCTATTCC
B51: R3-18-1C (dsDNA)
DNA 1: CGAATAGGTGGAAAAGCC
DNA 2: GGCTTTTCCACCTATTCG
B52: R3-18-17T (dsDNA)
DNA 1: GGAATAGGTGGAAAAGTC
DNA 2: GACTTTTCCACCTATTCC
B53: R3-18-14G (dsDNA)
DNA 1: GGAATAGGTGGAAGAGCC
DNA 2: GGCTCTTCCACCTATTCC
B54: R3-18-3G (dsDNA)
DNA 1: GGGATAGGTGGAAAAGCC
DNA 2: GGCTTTTCCACCTATCCC
B55: R3-18-2C (dsDNA)
DNA 1: GCAATAGGTGGAAAAGCC
DNA 2: GGCTTTTCCACCTATTGC
B56: R3-18-8T (dsDNA)
DNA 1: GGAATAGTTGGAAAAGCC
DNA 2: GGCTTTTCCAACTATTCC
B57: R3-18-16A (dsDNA)
DNA 1: GGAATAGGTGGAAAAACC
DNA 2: GGTTTTTCCACCTATTCC
B58: R3-18-15C (dsDNA)
DNA 1: GGAATAGGTGGAAACGCC
DNA 2: GGCGTTTCCACCTATTCC

These binders were tested against T1, ParB 65-139 (RHH domain) (assay: ITC).
Binder B1 has a Kd of 41 ± 9 nM. Binder B2 has a Kd of 35 ± 5 nM. B3 gave a Kd of 143 ± 31 nM. Binder B4 has a Kd of 46 ± 8 nM. For B5, the Kd was 203 ± 43 nM. With B6 the Kd was 35 ± 11 nM. B7 gave a Kd of 37 ± 5 nM. B8 gave a Kd of 46 ± 12 nM. Binder B9 has a Kd of 33 ± 8 nM. For B10, the Kd was 209 ± 77 nM. B11 was tested, and the Kd was 38 ± 9 nM. B12 showed a Kd of 380 ± 100 nM. B13 was tested, and the Kd was 67 ± 6 nM. For B14, the Kd was 89 ± 13 nM. B15 was tested, and the Kd was 56 ± 12 nM. B16 showed a Kd of 20 ± 7 nM. B17 gave a Kd of 33 ± 10 nM. B18 was tested, and the Kd was 56 ± 12 nM. In the case of B19, the Kd is reported as 365 ± 57 nM. For B20, the Kd was 44 ± 21 nM. Work on B21 yielded a Kd of 36 ± 9 nM. B22 showed a Kd of 45 ± 12 nM. In the case of B23, the Kd is reported as 57 ± 16 nM. B24 gave a Kd of 60 ± 28 nM. B25 was tested, and the Kd was 27 ± 11 nM. Binder B26 has a Kd of 16 ± 6 nM. In the case of B27, the Kd is reported as 32 ± 8 nM. B28 showed a Kd of 187 ± 20 nM. With B29 the Kd was 950 ± 680 nM. Work on B30 yielded a Kd of 68 ± 48 nM. B31: no binding. In the case of B32, the Kd is reported as 39 ± 13 nM. B33 was tested, and the Kd was 88 ± 12 nM. For B34, the Kd was 70 ± 17 nM. B35 was tested, and the Kd was 530 ± 50 nM. For B36, the Kd was 62 ± 15 nM. Binder B37 has a Kd of 123 ± 12 nM. For B38, the Kd was 46 ± 11 nM. B39 was tested, and the Kd was 46 ± 10 nM. B40 gave a Kd of 73 ± 22 nM. B41 was tested, and the Kd was 58 ± 31 nM. Work on B42 yielded a Kd of 84 ± 13 nM. B43 showed a Kd of 32 ± 6 nM. B44 was tested, and the Kd was 30 ± 6 nM. For B45, the Kd was 59 ± 29 nM. B46 gave a Kd of 18 ± 2 nM. With B47 the Kd was 56 ± 11 nM. B48 gave a Kd of 15 ± 5 nM. B49 gave a Kd of 30 ± 7 nM. For B50, the Kd was 64 ± 15 nM. Work on B51 yielded a Kd of 216 ± 22 nM. B52 showed a Kd of 30 ± 8 nM. B53 gave a Kd of 42 ± 9 nM. Binder B54 has a Kd of 121 ± 31 nM. B55 was tested, and the Kd was 189 ± 22 nM. With B56 the Kd was 17 ± 6 nM. With B57 the Kd was 22 ± 9 nM. B58 gave a Kd of 81 ± 8 nM.
